Data reported in the MegaScale stability set (Tsuboyama et al. 2023).

B1: 2M8U (parent)
chain: TKAQVIEAFKVFDRDGNGYVTVDYLRKVLNELGDMMPADEIEEMIYEADPQNSGYVQYETFVGMLFL

Variants of: B1
Experiment: folding stability dG (cDNA display proteolysis); higher = more stable
Settings: PBS, room temperature

For M35F, which “folding stability dG” value is on record?
The value was 3.9 kcal/mol.

With E40D as the variant, how does the “folding stability dG” value read?
Its value is 3.69 kcal/mol.

Which “folding stability dG” value does the source give for E40K here?
The value was 3.91 kcal/mol.

With E40L as the variant, how does the “folding stability dG” value read?
The value was 3.89 kcal/mol.

For E40F, which “folding stability dG” value is on record?
The value was 3.99 kcal/mol.

Which “folding stability dG” value does the source give for P37Y here?
Its value is 3.44 kcal/mol.

With P37T as the variant, how does the “folding stability dG” value read?
The value was 3.32 kcal/mol.

With P37M as the variant, how does the “folding stability dG” value read?
Its value is 3.3 kcal/mol.

With P37H as the variant, how does the “folding stability dG” value read?
Its value is 3.46 kcal/mol.

Which “folding stability dG” value does the source give for P37I here?
Its value is 3.41 kcal/mol.

Which “folding stability dG” value does the source give for P37C here?
Its value is 3.49 kcal/mol.

For R26D, which “folding stability dG” value is on record?
Its value is 1.78 kcal/mol.

For R26Q, which “folding stability dG” value is on record?
The value was 2.72 kcal/mol.

With R26M as the variant, how does the “folding stability dG” value read?
Its value is 3.44 kcal/mol.

Which “folding stability dG” value does the source give for L65S here?
The value was 1.7 kcal/mol.

With L65Y as the variant, how does the “folding stability dG” value read?
The value was 3.04 kcal/mol.

With L65G as the variant, how does the “folding stability dG” value read?
The value was 2.19 kcal/mol.

Which “folding stability dG” value does the source give for L65E here?
Its value is 1.82 kcal/mol.

Which “folding stability dG” value does the source give for L65I here?
The value was 3.11 kcal/mol.

Which “folding stability dG” value does the source give for E7H here?
The value was 2.93 kcal/mol.

Which “folding stability dG” value does the source give for E7F here?
Its value is 2.86 kcal/mol.

With E7G as the variant, how does the “folding stability dG” value read?
Its value is 2.87 kcal/mol.

For E7P, which “folding stability dG” value is on record?
The value was 1.91 kcal/mol.

For E7N, which “folding stability dG” value is on record?
The value was 3.17 kcal/mol.

Which “folding stability dG” value does the source give for E7W here?
The value was 2.42 kcal/mol.

For E7L, which “folding stability dG” value is on record?
Its value is 3.28 kcal/mol.

For E7Y, which “folding stability dG” value is on record?
The value was 2.7 kcal/mol.

Which “folding stability dG” value does the source give for E7C here?
Its value is 3.41 kcal/mol.

With T1W as the variant, how does the “folding stability dG” value read?
The value was 3.1 kcal/mol.

For T1I, which “folding stability dG” value is on record?
Its value is 3.61 kcal/mol.

With T1S as the variant, how does the “folding stability dG” value read?
The value was 3.34 kcal/mol.

For T1R, which “folding stability dG” value is on record?
Its value is 3.33 kcal/mol.

Which “folding stability dG” value does the source give for T1Y here?
The value was 2.83 kcal/mol.

Which “folding stability dG” value does the source give for T1A here?
The value was 3.13 kcal/mol.

With T1N as the variant, how does the “folding stability dG” value read?
Its value is 3.18 kcal/mol.

With E47D as the variant, how does the “folding stability dG” value read?
Its value is 3.49 kcal/mol.

For E47G, which “folding stability dG” value is on record?
The value was 3.5 kcal/mol.

For E47K, which “folding stability dG” value is on record?
Its value is 4.09 kcal/mol.

Which “folding stability dG” value does the source give for E47T here?
The value was 3.73 kcal/mol.

Which “folding stability dG” value does the source give for E47L here?
The value was 3.88 kcal/mol.

For E47P, which “folding stability dG” value is on record?
Its value is 2.33 kcal/mol.

For E47H, which “folding stability dG” value is on record?
Its value is 3.8 kcal/mol.

Which “folding stability dG” value does the source give for F12D here?
The value was 2.69 kcal/mol.

Which “folding stability dG” value does the source give for F12Y here?
Its value is 3.71 kcal/mol.

With F12K as the variant, how does the “folding stability dG” value read?
The value was 2.54 kcal/mol.

Which “folding stability dG” value does the source give for F12A here?
The value was 3.36 kcal/mol.

With F12V as the variant, how does the “folding stability dG” value read?
Its value is 3.03 kcal/mol.

Which “folding stability dG” value does the source give for Q4S here?
Its value is 3.47 kcal/mol.

Which “folding stability dG” value does the source give for Q4A here?
Its value is 3.53 kcal/mol.

With Q4M as the variant, how does the “folding stability dG” value read?
Its value is 3.31 kcal/mol.

For Q4D, which “folding stability dG” value is on record?
The value was 3.28 kcal/mol.

Which “folding stability dG” value does the source give for Q4C here?
The value was 3.56 kcal/mol.

Which “folding stability dG” value does the source give for D15N here?
The value was 2.97 kcal/mol.

With D15V as the variant, how does the “folding stability dG” value read?
Its value is 2.94 kcal/mol.

Which “folding stability dG” value does the source give for T21R here?
Its value is 3.74 kcal/mol.

For T21K, which “folding stability dG” value is on record?
Its value is 3.47 kcal/mol.

For T21Q, which “folding stability dG” value is on record?
The value was 3.7 kcal/mol.

Which “folding stability dG” value does the source give for G54R here?
The value was 2.56 kcal/mol.

For G54T, which “folding stability dG” value is on record?
Its value is 2.35 kcal/mol.

Which “folding stability dG” value does the source give for G54S here?
Its value is 2.48 kcal/mol.

With G54W as the variant, how does the “folding stability dG” value read?
Its value is 2.82 kcal/mol.

With L32Q as the variant, how does the “folding stability dG” value read?
Its value is 2.62 kcal/mol.

With L32H as the variant, how does the “folding stability dG” value read?
Its value is 2.96 kcal/mol.

For L32M, which “folding stability dG” value is on record?
Its value is 3.21 kcal/mol.

Which “folding stability dG” value does the source give for L32A here?
Its value is 2.77 kcal/mol.

For L32F, which “folding stability dG” value is on record?
Its value is 3.66 kcal/mol.

For L32P, which “folding stability dG” value is on record?
The value was 1.83 kcal/mol.

With L32K as the variant, how does the “folding stability dG” value read?
The value was 2.5 kcal/mol.

Which “folding stability dG” value does the source give for A8F here?
The value was 3.23 kcal/mol.

Which “folding stability dG” value does the source give for A8W here?
The value was 3.56 kcal/mol.

For K27P, which “folding stability dG” value is on record?
The value was 2.04 kcal/mol.

Which “folding stability dG” value does the source give for K27S here?
Its value is 3.2 kcal/mol.

With E43I as the variant, how does the “folding stability dG” value read?
The value was 3.87 kcal/mol.

Which “folding stability dG” value does the source give for E43S here?
The value was 3.74 kcal/mol.

Which “folding stability dG” value does the source give for E43K here?
Its value is 3.75 kcal/mol.

Which “folding stability dG” value does the source give for E43N here?
Its value is 3.64 kcal/mol.

With E43C as the variant, how does the “folding stability dG” value read?
Its value is 3.74 kcal/mol.

For E43P, which “folding stability dG” value is on record?
The value was 3.54 kcal/mol.

With E43Q as the variant, how does the “folding stability dG” value read?
Its value is 3.9 kcal/mol.

Which “folding stability dG” value does the source give for E43W here?
The value was 3.87 kcal/mol.

With E43M as the variant, how does the “folding stability dG” value read?
The value was 3.82 kcal/mol.

Which “folding stability dG” value does the source give for E43G here?
The value was 3.58 kcal/mol.

For E31N, which “folding stability dG” value is on record?
Its value is 3.36 kcal/mol.

Which “folding stability dG” value does the source give for E31W here?
Its value is 3.64 kcal/mol.
